Measured values published in FireProtDB (doi:10.1021/bi982158q).

Conditions: Bos taurus, pH 7, K2HPO4 5 mM, transition: 2, reversible: Yes, whole UniProt chain shown; for Tm: Thermal

B1: Cytochrome b5 wild type, P00171 (protein)
chain: MAEESSKAVKYYTLEEIQKHNNSKSTWLILHYKVYDLTKFLEEHPGGEEVLREQAGGDATENFEDVGHSTDARELSKTFIIGELHPDDRSKITKPSESIITTIDSNPSWWTNWLIPAISALFVALIYHLYTSEN
For B1, the denaturant m value (25 °C, Urea, Absorbance) was 1.26 kcal/mol/M, the “denaturant midpoint (higher = more stable)” value (25 °C, Urea, Absorbance) was 6.9 M and the unfolding free energy (25 °C, Urea, Absorbance) was 8.7 kcal/mol. For the same protein, the Tm (Absorbance) was 75.2 °C and the Tm (Fluorescence) was 50.1 °C.
